Source: US8580556B2, “Sulfonylurea-responsive repressor proteins” (E. I. du Pont de Nemours and Company, priority 2008, dated 2013)
Like-named read-outs stand apart in the source and are kept apart here.

System: tetA promoter (PtetA)-lacZ reporter in E. coli KM3
Type: cell-based
Conditions: for relative β-galactosidase activity, inducer None / relative β-galactosidase activity, No inducer / relative β-galactosidase activity, inducer Blank: no inducer; for Inducer preference: Table 8, inducers given as numbers without key
[1] = Table 4, anhydrotetracycline 0.4 μM, 48 hrs at 30° C.
[2] = Table 4, chlorimuron 20 μg/ml (20 ppm), 48 hrs at 30° C.
[3] = Table 4, nicosulfuron 20 μg/ml (20 ppm), 48 hrs at 30° C.
[4] = Table 4, rimsulfuron 20 μg/ml (20 ppm), 48 hrs at 30° C.
[5] = Table 4, sulfometuron 20 μg/ml (20 ppm), 48 hrs at 30° C.
[6] = Table 4, thifensulfuron 20 μg/ml (20 ppm), 48 hrs at 30° C.
[7] = Table 4, tribenuron 20 μg/ml (20 ppm), 48 hrs at 30° C.
[8] = Table 10, chlorsulfuron 2 ppm, 48 hours at 30° C.
[9] = Table 10, ethametsulfuron 2 ppm, 48 hours at 30° C.
[10] = Table 10, metsulfuron 2 ppm, 48 hours at 30° C.
[11] = Table 10, sulfometuron 2 ppm, 48 hours at 30° C.
[12] = Table 4, chlorsulfuron 20 μg/ml (20 ppm), 48 hrs at 30° C.
[13] = Table 4, ethametsulfuron 20 μg/ml (20 ppm), 48 hrs at 30° C.
[14] = Table 4, metsulfuron 20 μg/ml (20 ppm), 48 hrs at 30° C.
[15] = Table 6, reverse repressor hits, anhydrotetracycline
[16] = Table 6, reverse repressor hits, chlorimuron, same plate assay format as Table 4
[17] = Table 6, reverse repressor hits, chlorsulfuron, same plate assay format as Table 4
[18] = Table 6, reverse repressor hits, ethametsulfuron, same plate assay format as Table 4
[19] = Table 6, reverse repressor hits, metsulfuron, same plate assay format as Table 4
[20] = Table 6, reverse repressor hits, nicosulfuron, same plate assay format as Table 4
[21] = Table 6, reverse repressor hits
[22] = Table 6, reverse repressor hits, rimsulfuron, same plate assay format as Table 4
[23] = Table 6, reverse repressor hits, sulfometuron, same plate assay format as Table 4
[24] = Table 6, reverse repressor hits, thifensulfuron, same plate assay format as Table 4
[25] = Table 6, reverse repressor hits, tribenuron, same plate assay format as Table 4

B1: L1-44: library L1 hit, sulfonylurea-responsive TetR(B) variant, SEQ ID NO: 13 (protein)
chain: MGSRLDKSKVINSALELLNEVGIEGLTTRKLAQKLGVEQPTLYWHVKNKRALLDALAIEMLDRHATHFCPLEGESWQDFLRNNAKSYRCALLSHRDGAKVYLGTAVTEKQYETAENQLAFLCQQGFSLENALYAVKAVAGFTLGCVLWDQESQVAKEERETPTTASMPPLLRQAVELADHQGAEPAFLFGLELIICGLEKQLKCESGS
modifications: Sulfonylurea responsive repressor L1-44
relative β-galactosidase activity, inducer atc [1]: 0.2 | relative β-galactosidase activity, inducer Ci [2]: 6.7 | relative β-galactosidase activity, inducer Ns [3]: 0.4 | relative β-galactosidase activity, inducer None (Table 4, 48 hrs at 30° C.): 0.2 | relative β-galactosidase activity, inducer Rs [4]: 0.3 | relative β-galactosidase activity, inducer Sm [5]: 0.4 | relative β-galactosidase activity, inducer Ts [6]: 1.9 | relative β-galactosidase activity, inducer Tb [7]: 0.4 | Inducer preference: 9 (weak) | relative β-galactosidase activity, inducer Cs [8]: 1.9 | relative β-galactosidase activity, inducer Es [9]: 1.0 | relative β-galactosidase activity, inducer Ms [10]: 0.5 | relative β-galactosidase activity, No inducer (Table 10, 48 hours at 30° C.): 0.6 | relative β-galactosidase activity, inducer Sm [11]: 0.6

B2: L1-7: library L1 hit, sulfonylurea-responsive TetR(B) variant, SEQ ID NO: 4 (protein)
chain: MGSRLDKSKVINSALELLNEVGIEGLTTRKLAQKLGVEQPTLYWHVKNKRALLDALAIEMLDRHNTHFCPLEGESWQDFLRNNAKSWRCALLSHRDGAKVVLGTAITEKQYETHENPLAFLCQQGFSLENALYAIAAVRRFTLGCVLVDQERQVAKEERETPTTDSMPPLLRQASELQDHQGAEPAFLFGLELIICGLEKQLKCERGS
modifications: Sulfonylurea responsive repressor L1-07
relative β-galactosidase activity, inducer atc [1]: 0.0 | relative β-galactosidase activity, inducer Ci [2]: 16.5 | relative β-galactosidase activity, inducer Cs [12]: 3.1 | relative β-galactosidase activity, inducer Es [13]: 0.1 | relative β-galactosidase activity, inducer Ms [14]: 0.2 | relative β-galactosidase activity, inducer Ns [3]: 0.1 | relative β-galactosidase activity, inducer None (Table 4, 48 hrs at 30° C.): 0.0 | relative β-galactosidase activity, inducer Rs [4]: 0.2 | relative β-galactosidase activity, inducer Sm [5]: 6.4 | relative β-galactosidase activity, inducer Ts [6]: 0.1 | relative β-galactosidase activity, inducer Tb [7]: 0.2

B3: L1-22: library L1 hit, sulfonylurea-responsive TetR(B) variant, SEQ ID NO: 7 (protein)
chain: MGSRLDKSKVINSALELLNEVGIEGLTTRKLAQKLGVEQPTLYWHVKNKRALLDALAIEMMDRHHTHFCPLEGESWQDFLRNTAKSYRCALLSHRDGAKVCLGTAITEKQYETKENNLAFLCQQGFSLENALYARQAVRVFTLGCVLFDQEMQVAKEERETPTTDSMPPLLRQASELLDHQGAEPAFLFGLELIICGLEKQLKSESGS
modifications: Sulfornylurea responsive repressor L1-22
relative β-galactosidase activity, inducer atc [1]: 0.0 | relative β-galactosidase activity, inducer Ci [2]: 10.4 | relative β-galactosidase activity, inducer Cs [12]: 0.2 | relative β-galactosidase activity, inducer Es [13]: 0.3 | relative β-galactosidase activity, inducer Ms [14]: 0.1 | relative β-galactosidase activity, inducer Ns [3]: 0.2 | relative β-galactosidase activity, inducer None (Table 4, 48 hrs at 30° C.): 0.1 | relative β-galactosidase activity, inducer Rs [4]: 0.1 | relative β-galactosidase activity, inducer Ts [6]: 0.0 | relative β-galactosidase activity, inducer Tb [7]: 0.3 | Inducer preference: 3 | relative β-galactosidase activity, inducer Cs [8]: 0.2 | relative β-galactosidase activity, inducer Es [9]: 0.2 | relative β-galactosidase activity, inducer Ms [10]: 0.2 | relative β-galactosidase activity, No inducer (Table 10, 48 hours at 30° C.): 0.2 | relative β-galactosidase activity, inducer Sm [11]: 1.8

B4: L1-36: library L1 reverse repressor hit (SEQ ID NO: 1206-1213) (protein)
chain: MGSRLDKSKVINSALELLNEVGIEGLTTRKLAQKLGVEQPTLYWHVKNKRALLDALAIEMADRHHTHFCPLEGESWQDFLRNAAKSMRCALLSHRDGAKVRLGTAWTEKQYETHENVLAFLCQQGFSLENALYALKAVSGFTLGCVLKDQEMQVAKEERETPTTDSMPPLLRQATELVDHQGAEPAFLFGLELIICGLEKQLKCESGS
modifications: rSuR L1-36
relative β-galactosidase activity, inducer atc [15]: 1.70 | relative β-galactosidase activity, inducer Ci [16]: 0.21 | relative β-galactosidase activity, inducer Cs [17]: 0.24 | relative β-galactosidase activity, inducer Es [18]: 0.20 | relative β-galactosidase activity, inducer Ms [19]: 0.38 | relative β-galactosidase activity, inducer Ns [20]: 1.81 | relative β-galactosidase activity, inducer Blank [21]: 1.52 | relative β-galactosidase activity, inducer Rs [22]: 1.84 | relative β-galactosidase activity, inducer Sm [23]: 0.50 | relative β-galactosidase activity, inducer Ts [24]: 0.48 | relative β-galactosidase activity, inducer Tb [25]: 0.57

B5: L1-39: library L1 reverse repressor hit (SEQ ID NO: 1206-1213) (protein)
chain: MGSRLDKSKVINSALELLNEVGIEGLTTRKLAQKLGVEQPTLYWHVKNKRALLDALAIEMMDRHQTHFCPLEGESWQDFLRNTAKSYRCALLSHRDGAKVILGTRWTEKQYETRENVLAFLCQQGFSLENALYAWAAVGPFTLGCVLRDQERQVAKEERETPTTDSMPPLLRQALELMDHQGAEPAFLFGLELIICGLEKQLKCESGS
modifications: rSuR L1-39
relative β-galactosidase activity, inducer atc [15]: 4.92 | relative β-galactosidase activity, inducer Ci [16]: 0.49 | relative β-galactosidase activity, inducer Cs [17]: 0.89 | relative β-galactosidase activity, inducer Es [18]: 0.60 | relative β-galactosidase activity, inducer Ms [19]: 0.75 | relative β-galactosidase activity, inducer Ns [20]: 3.03 | relative β-galactosidase activity, inducer Blank [21]: 3.65 | relative β-galactosidase activity, inducer Rs [22]: 4.72 | relative β-galactosidase activity, inducer Sm [23]: 0.91 | relative β-galactosidase activity, inducer Ts [24]: 1.42 | relative β-galactosidase activity, inducer Tb [25]: 0.97

B6: L1-41: library L1 reverse repressor hit (SEQ ID NO: 1206-1213) (protein)
chain: MGSRLDKSKVINSALELLNEVGIEGLTTRKLAQKLGVEQPTLYWHVKNKRALLDALAIEMLDRNQTHFCPLEGESWQDFLRNNAKSWRCALLSHRDGAKVMLGTRNTEKQYETAENGLAFLCQQGFSLENALYACRAVWTFTLGCVLDDQETQVAKEERETPTSDSMPPLLRQAMELKDHQGAEPAFLFGLELIICGLEKQLKCESGS
modifications: rSuR L1-41
relative β-galactosidase activity, inducer atc [15]: 4.21 | relative β-galactosidase activity, inducer Ci [16]: 0.39 | relative β-galactosidase activity, inducer Cs [17]: 0.61 | relative β-galactosidase activity, inducer Es [18]: 0.18 | relative β-galactosidase activity, inducer Ms [19]: 0.56 | relative β-galactosidase activity, inducer Ns [20]: 2.75 | relative β-galactosidase activity, inducer Blank [21]: 4.05 | relative β-galactosidase activity, inducer Rs [22]: 4.05 | relative β-galactosidase activity, inducer Sm [23]: 0.67 | relative β-galactosidase activity, inducer Ts [24]: 1.46 | relative β-galactosidase activity, inducer Tb [25]: 1.41

B7: L1-18: library L1 reverse repressor hit (SEQ ID NO: 1206-1213) (protein)
chain: MGSRLDKSKVINSALELLNEVGIEGLTTRKLAQKLGVEQPTLYWHVKNKRALLDALAIEMLDRHLTHFCPLEGESWQDFLRNNAKSMRCALLSHRDGAKVWLGTGFTEKQYETKENRLAFLCQQGFSLENALYAIRAVSRFTLGCVLQDQEPQVAKEERETPTTDSMPPLLRQAVELFDHQGAEPAFLFGLELIICGLEKQLKCESES
modifications: rSuR L1-18
relative β-galactosidase activity, inducer atc [15]: 2.35 | relative β-galactosidase activity, inducer Ci [16]: 0.36 | relative β-galactosidase activity, inducer Cs [17]: 1.22 | relative β-galactosidase activity, inducer Es [18]: 0.37 | relative β-galactosidase activity, inducer Ms [19]: 0.79 | relative β-galactosidase activity, inducer Ns [20]: 1.44 | relative β-galactosidase activity, inducer Blank [21]: 1.34 | relative β-galactosidase activity, inducer Rs [22]: 2.55 | relative β-galactosidase activity, inducer Sm [23]: 0.94 | relative β-galactosidase activity, inducer Ts [24]: 1.13 | relative β-galactosidase activity, inducer Tb [25]: 1.65

B8: L1-21: library L1 reverse repressor hit (SEQ ID NO: 1206-1213) (protein)
chain: MGSRLDKSKVINSALELLNEVGIEGLTTRKLAQKLGVEQPTLYWHVKNKRALLDALAIEMLDRHATHFCPLEGESWQDFLRNNAKSFRCALLSHRDGAKVCLGTAGTEKQYETLENCLAFLCQQGFSLENALYARSAVVCFTLGCVLFDQEMQVAKEERETPTTDSMPPLLRQAAELLDHQGAEPAFLFGLELIICGLEKQLKCESGS
modifications: rSuR L1-21
relative β-galactosidase activity, inducer atc [15]: 2.81 | relative β-galactosidase activity, inducer Ci [16]: 0.07 | relative β-galactosidase activity, inducer Cs [17]: 0.89 | relative β-galactosidase activity, inducer Es [18]: 0.61 | relative β-galactosidase activity, inducer Ms [19]: 0.89 | relative β-galactosidase activity, inducer Ns [20]: 2.74 | relative β-galactosidase activity, inducer Blank [21]: 2.88 | relative β-galactosidase activity, inducer Rs [22]: 2.31 | relative β-galactosidase activity, inducer Sm [23]: 2.39 | relative β-galactosidase activity, inducer Ts [24]: 0.79 | relative β-galactosidase activity, inducer Tb [25]: 2.13
